Consider three molecules from patent US12319739 (F STAR DELTA, dated 2025).

Assay [1] has as its target human CD137 on primary human CD8+ T cells (human, UniProt Q07011 24-255). Put plainly: cell-based or functional assay.
Assay [2] deals with T1, endogenous cell surface human MSLN (human, UniProt Q13421 296-598).
T1 construct: whole, on cells; The cell line is named under assay; also called cell-surface MSLN on NCI-H226, OVCAR-3 and AsPC-1 cells
Put plainly: flow cytometry, NCI-H226 cells. The method, then:
(§1) To confirm binding to cell surface MSLN, mAb² listed in Table 9 were analysed for binding to endogenous cell surface MSLN on the human lung cancer cell line NCI-H226. In addition, and because MSLN can be found in blood in a shed soluble form, there is a risk that this circulating MSLN might affect exposure and ultimately potency of our mAb². To confirm that presence of soluble MSLN has minimal impact, additional binding experiments to NCI-H226 cells were performed in the presence of 20 nM soluble MSLN which is 10-20 times the level of soluble MSLN found to be of diagnostic value for defining malignant mesothelioma and lung cancer patients as MSLN positive (Cui et al., 2014). Briefly, NCI-H226 cells (ATCC CRL-5826) were harvested from T175 cell culture flasks using Accutase (Gibco, A11105-01).
(§2) In both cases, cells were centrifuged at 1200 rpm for 3 min and resuspended in ice cold FACS buffer made up of DPBS (Life Technologies, 14190169) and 1% BSA (Sigma-Aldrich, A7906) at 2×10⁶ cells/ml and 50 μl per well was seeded in a 96-well V-bottom plate (Costar, 3894). All antibodies tested were diluted in FACS buffer in 120 μl at a concentration range of 0.01-200 nM (4-fold dilutions). The NCI-H226 cells were then centrifuged, supernatant removed and cells resuspended in 100 μl of each mAb dilution and incubated at 4° C. for 45 min. Cells were washed twice by centrifugation with 150 μl FACS buffer, resuspended in 100 μl containing goat anti-human IgG (γ-chain specific) F(ab')2 fragment-R-Phycoerythrin antibody (Sigma, P8047) diluted 1:1000 in FACS buffer and incubated at 4° C. for 45 min. The cells were washed once with 150 μl FACS buffer and then with 150 μl DPBS, resuspended in 150 μl DPBS containing DAPI (Biotium, 40043) at 1:10.000 and read on the BDCantoII or iQue (Intellicyt).

The target in assay [3] is T1, endogenous cell surface human MSLN. Kind of assay: flow cytometry, NCI-H226 cells + 20 nM soluble MSLN. The method, then:
as §1, §2

human CD137 on primary human CD8+ T cells, sequence (Q07011 24-255): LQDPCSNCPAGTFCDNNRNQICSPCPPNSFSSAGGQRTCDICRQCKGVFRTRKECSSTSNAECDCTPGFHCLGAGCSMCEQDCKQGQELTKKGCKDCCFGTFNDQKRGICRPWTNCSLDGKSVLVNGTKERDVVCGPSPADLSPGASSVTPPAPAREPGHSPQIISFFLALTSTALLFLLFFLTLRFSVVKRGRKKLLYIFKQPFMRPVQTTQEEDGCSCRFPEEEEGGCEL
T1 sequence (Q13421 other isoform, or with tags, fused parts or gaps limits assumed): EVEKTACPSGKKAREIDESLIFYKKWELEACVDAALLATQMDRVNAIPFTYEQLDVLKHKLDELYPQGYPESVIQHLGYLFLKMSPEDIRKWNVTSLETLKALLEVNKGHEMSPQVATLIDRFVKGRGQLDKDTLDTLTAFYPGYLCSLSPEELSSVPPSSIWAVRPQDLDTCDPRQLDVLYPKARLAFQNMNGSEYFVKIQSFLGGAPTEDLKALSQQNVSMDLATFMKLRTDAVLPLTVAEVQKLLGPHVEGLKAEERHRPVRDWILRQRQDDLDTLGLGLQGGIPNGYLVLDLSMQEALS

B1: FS22-172-003-AA/FS28-256-005 (bispecific antibody, human IgG1, kappa, L234A L235A, V domains shown)
VH: EVQLLESGGGLVQPGGSLRLSCAASGFTFTETYMSWVRQAPGKGLEWVSNISPTYSTTNYADSVKGRFTISRDNSKNTLYLQMNSLRAEDTAVYYCARYNSYQGGLDYWGQGTLVTVSS
VL: EIVLTQSPGTLSLSPGERATLSCRASQSVSSSYLAWYQQKPGQAPRLLIYGASSRATGIPDRFSGSGSGTDFTLTISRLEPEDFAVYYCQQALGYPHTFGQGTKVEIKR
notes: IgG1 mAb^2 with LALA
Take B1: in assay [1], the “Emax (IL-2 pg/ml), NCI-H226 co-culture, Donor A” value (“Emax (IL-2 pg/ml) … Donor A” for short) was determined as 1100 pg/mL and the “IL-2 release EC50, NCI-H226 co-culture, Donor A” value (“IL-2 release EC50 … Donor A” below) was determined as 1.63 nM. Moreover, in assay [2], the EC50 came to 0.729 nM and the “Emax (MFI)” value worked out at 441000 MFI. Besides, in assay [3], the EC50 worked out at 0.856 nM and the “Emax (MFI)” value is 424000 MFI.

B2: FS22-172-003-AA/FS28-256-018 (bispecific antibody, human IgG1, kappa, L234A L235A, V domains shown)
VH: EVQLLESGGGLVQPGGSLRLSCAASGFTFTQTYMSWVRQAPGKGLEWVSNISPTYSTTNYADSVKGRFTISRDNSKNTLYLQMNSLRAEDTAVYYCARYNAYQIGLDYWGQGTLVTVSS
VL: EIVLTQSPGTLSLSPGERATLSCRASQSVSSSYLAWYQQKPGQAPRLLIYGASSRATGIPDRFSGSGSGTDFTLTISRLEPEDFAVYYCQQSYYYPITFGQGTKVEIKR
notes: IgG1 mAb^2 with LALA
With B2, in assay [1], the “Emax (IL-2 pg/ml) … Donor A” value was found to be 1260 pg/mL; the “Emax (IL-2 pg/ml), NCI-H226 co-culture, Donor B” value worked out at 903 pg/mL; the “IL-2 release EC50 … Donor A” value was found to be 3.22 nM; the “IL-2 release EC50, NCI-H226 co-culture, Donor B” value is 3.71 nM. Also, in assay [2], the response was half-maximal at 3.6 nM (EC50) and the “Emax (MFI)” value stood at 348000 MFI. Moreover, in assay [3], the EC50 was 4.09 nM and the “Emax (MFI)” value stood at 357000 MFI.

B3: FS22-172-003-AA/FS28-256-014 (bispecific antibody, human IgG1, kappa, L234A L235A, V domains shown)
VH: EVQLLESGGGLVQPGGSLRLSCAASGFTFTDTYMSWVRQAPGKGLEWVSNISPTYSTTNYADSVKGRFTISRDNSKNTLYLQMNSLRAEDTAVYYCARYNAYAAGLDYWGQGTLVTVSS
VL: EIVLTQSPGTLSLSPGERATLSCRASQSVSSSYLAWYQQKPGQAPRLLIYGASSRATGIPDRFSGSGSGTDFTLTISRLEPEDFAVYYCQQSYYYPITFGQGTKVEIKR
notes: IgG1 mAb^2 with LALA
In the case of B3, in assay [1], the “Emax (IL-2 pg/ml) … Donor A” value stood at 1360 pg/mL and the “IL-2 release EC50 … Donor A” value is 3.58 nM. Besides, in assay [2], the 50% effective concentration (EC50) came to 0.727 nM and the “Emax (MFI)” value was 476000 MFI. Further, in assay [3], the concentration for a half-maximal effect (EC50) is 1.09 nM and the “Emax (MFI)” value amounted to 514000 MFI.

One may read the EC50 as the concentration at which the effect is half-maximal.
